In patent publication US20230287131A1 (ORIONIS BIOSCIENCES, published 2023):

Key:
[1] = target: hTNF-R2 on Raji cells or PC60-hTNFR2 cells (human) (UniProt P20333); assay: cell-based or functional assay
[2] = target: T1, soluble hTNF-R1 (Peprotech) (human, UniProt P19438 30-211); assay: BLI (Octet RED96), affinity relative to WT hTNF
T1 construct: extracellular domain; also called p55
T1 sequence (looked up): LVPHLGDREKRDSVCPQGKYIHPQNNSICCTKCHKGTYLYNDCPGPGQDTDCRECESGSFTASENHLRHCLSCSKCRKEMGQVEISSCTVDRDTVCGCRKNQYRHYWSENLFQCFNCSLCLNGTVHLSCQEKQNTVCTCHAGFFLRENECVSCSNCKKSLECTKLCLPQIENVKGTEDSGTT
Procedure: (§1) KD values were calculated using global fitting with a 1:1 model (R²≥0.95).

[3] = target: T1, soluble hTNF-R1 (Peprotech); assay: BLI (Octet RED96), His-tagged TNF on HIS1K biosensor, soluble receptor in solution, 1:1 global fit
Procedure: as §1

[4] = target: T2, soluble hTNF-R2 (Peprotech) (human, UniProt P20333 23-257); assay: as above
T2 construct: extracellular domain; also called p75
T2 sequence (looked up): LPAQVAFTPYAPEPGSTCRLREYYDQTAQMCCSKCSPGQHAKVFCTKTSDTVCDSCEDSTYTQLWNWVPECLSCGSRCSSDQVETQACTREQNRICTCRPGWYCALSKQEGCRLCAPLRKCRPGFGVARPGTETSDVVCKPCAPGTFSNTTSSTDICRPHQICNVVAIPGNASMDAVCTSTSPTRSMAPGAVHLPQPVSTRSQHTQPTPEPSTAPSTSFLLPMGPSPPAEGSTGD
Procedure: as §1

| OPRM1 mRNA expression in Raji cells (qPCR), against unstimulated cells [1] [fold] | % WT R1 [2] [%] | Kd [3] [nM] | Kd [4] [nM] | Molecule |
| --- | --- | --- | --- | --- |
| 5 |  |  |  | BclI10 Nanobody (control) - 20xGGS - hTNF Y87H/A145R - 6xHis AcTakine |
|  | 0.35 | 5100 | 4.78 | hTNF mutant A145T E146D S147D (N-terminal 6xHis tag) (ligand) HHHHHHVRSSSRTPSDKPVAHVVANPQAEGQLQWLNRRANALLANGVELRDNQLVVPSEGLYLIYSQVLFKGQGCPSTHVLLTHTISRIAVSYQTKVNLLSAIKSPCQRETPEGAEAKPWYEPIYLGGVFQLEKGDRLSAEINRPDYLDFTDDGQVYFGIIAL |
